From US20190248902A1 (published 2019) come the findings set out here.

Numbering of substitutions follows the chain as printed.

One may read the EC50 as the concentration giving half of the maximal effect. A lower EC50 goes with greater potency. As usually defined, the Kd is the free concentration of one partner at which half of the binding sites on the other are occupied at equilibrium, for simple one-to-one binding.

Experiment [1] addresses T1, human ASGR-1 (wild type) (human, UniProt P07306 1-291).
T1 construct: also called wt ASGR1; huASGR-1
T1 sequence: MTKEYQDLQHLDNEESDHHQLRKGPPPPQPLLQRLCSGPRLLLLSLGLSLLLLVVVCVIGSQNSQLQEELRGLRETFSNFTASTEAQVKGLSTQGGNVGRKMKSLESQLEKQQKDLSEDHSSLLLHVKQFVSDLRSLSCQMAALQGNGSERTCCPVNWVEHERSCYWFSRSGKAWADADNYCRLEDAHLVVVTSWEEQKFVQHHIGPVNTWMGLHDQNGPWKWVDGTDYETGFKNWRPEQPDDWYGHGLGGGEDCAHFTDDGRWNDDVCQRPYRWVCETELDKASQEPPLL
As to the kind of experiment: FACS, transfected CHO-S cells, mAb 5 ug/ml. In outline:
(§1)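 Transiently transfected CHO-S cells expressing wild-type or mutant hASGR-1 incubated with antibody at 5 ug/ml, 1 h at 4 °C; bound antibody detected by Alexa Fluor 647 anti-Fc plus 7-AAD, by flow cytometry. Binding normalized to expression using an unaffected antibody (65C12), then to wild type; hits defined as >3× IQR above third quartile.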
(In general: A flow cytometer gives signals particle by particle.)

The target in experiment [2] is T2, human ASGR-1 mutant construct H203 (human, UniProt P07306 1-291).
T2 construct: Arg/Glu scanning: non-arginine residues were changed to arginine; Transiently expressed on CHO-S cells
T2 sequence: T1 sequence with H203R
As to the kind of experiment: FACS, transfected CHO-S cells, mAb 5 ug/ml. The procedure, abridged:
as §1

The target of experiment [3] is T1, human ASGR-1 (wild type). As to the kind of experiment: FACS ratio: 65C12 geomean / this mAb geomean. The procedure, abridged:
(§2)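 Value is the geomean of reference antibody 65C12 divided by that of the test mAb, correcting for construct expression. Binding was measured by flow cytometry on transiently transfected CHO-S cells after 1 h at 4 °C with antibody at 5 ug/ml. Detection used an anti-Fc Alexa 647 secondary, with 7-AAD to exclude dead cells.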

In experiment [4] the target is T2, human ASGR-1 mutant construct H203. Put plainly: FACS ratio: 65C12 geomean / this mAb geomean. The procedure, abridged:
as §2

The target is the same in experiment [5]. Put plainly: FACS ratio: H203 normalized value / wt normalized value. The procedure, abridged: as §1
Experiment [6] concerns the target T1, human ASGR-1 (wild type). Put plainly: flow cytometry, CHO-S:huASGR-1 cells, 11-point titration. Here is the method: CHO—S stable high-expressing cell line were developed for both human ASGR-1 as well as mouse ASGR-1. A typical 384 well plate multiplex flow cytometery-based cell binding method is described as followed: Parental CHO—S cells and CHO—S:huASGR-1 cells were respectively labeled using a CellTrace CFSE Cell Proliferation Kit (ThermoFisher Catalog #C34554) and CellTrace Violet Cell Proliferation Kit (ThermoFisher Catalog#C34557) CHO—S:muASGR-1 were not labeled. 20 ul of cells at 4C were added to duplicate wells of the 384 well plate. The cells were equally mixed from all three cell lines (30K cells/well). Then 20 ul of the ASGR-1 antibodies (either purified from hybridoma supernatants or made recombinantly) were added in an 11-point dose response using a 1:2 fold serial dilution starting at 100 nM. The cells and antibodies were incubated for 30 min at 4C and then spun down and washed twice with FACS buffer containing 1 mM CaCl2. 30 ul of anti-hulgG-APC secondary antibodies were then added at a 1:1000 dilution) for 30 min at 4C and then washed once with the same buffer. 60 ul of PI (1:1000) was added and then the cells were read by a core flow cytometry facility. The cells were gated first for live cells, then for single cells and finally for the cell dyes to separate the mixed cells into the three different cell populations. Histograms of signal vs count representing the binding profile of each antibody at each antibody concentration were automatically analyzed for the median of the binding signal and then a binding graph was made with log 10 antibody concentration in nM on the X axis with […] from the duplicate wells on the Y-axis. The binding curves were fit with a standard four parameter sigmoidal binding curve and EC50's reported for all graphs with full curves.

Experiment [7] concerns the target T3, soluble human ASGR-1 carbohydrate binding domain (CBD; amino acid residues 154-281; N-terminal 6xHis tag) (human, UniProt P07306 154-281).
T3 construct: also called ASGR-1 CBD
T3 sequence: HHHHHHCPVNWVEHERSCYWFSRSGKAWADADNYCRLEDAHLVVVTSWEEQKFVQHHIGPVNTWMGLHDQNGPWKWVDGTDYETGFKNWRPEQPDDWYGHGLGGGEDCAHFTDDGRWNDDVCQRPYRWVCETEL
As to the kind of experiment: Octet BLI, mAb on AR2G tips, 1:1 fit. The source says:
To quantitate the binding affinity of specific antibodies for ASGR-1 (either purified from hybridoma supernatants or made recombinantly), association and dissociation rates can be measured using a ForteBio Octet instrument. […] Experimental kinetic results were globally fit to a 1:1 binding model in order to determine the association and dissociation rate constants as well as the equilibrium dissociation constant. Association and dissociation times were chosen to ensure that curvature was present during association curves and measured dissociation levels dropped at least 5% from starting levels. All Octet buffers contained 10 mM Tris (pH7.5), 150 mM NaCl, 1 mM CaCl₂), 0.10 mg/ml BSA and 0.13% Triton X-100. Octet assays were run at 27° C. Because this assay only measures binding to the ASGR-1 CBD, antibodies that recognize epitopes partially or entirely outside the CBD and/or recognize ASGR-1 in the context of a native ASGR complex, for example, as could occur on cell membranes, may not score as positive in this assay.
(BLI is a label-free optical method that tracks binding on a fibre tip over time.)

B1: 65C12 (antibody, V domains shown)
VH: EVQLVESGGGLVKPGGSLRLSCAASGFTFRSFSLNWVRQAPGKGLEWVSSISSSSSYIYYADSVKGRFTISRDNAKNSLYLQMNSLRAEDTAVYYCARDAYSHYWGQGTLVTVSS
VL: EIVMTQSPATLSVFPGEGATLSCRASQSVSINLAWYQQKPGQAPRLLIYGASTRATGIPARFNASGSGTEFTLSISSLQSENFAVYYCQQYNTWPLTFGGGTKVEIK
notes: mAb
With B1, the “FACS Binding Geomean” value with human ASGR-1 (wild type) [1] came to 56100; in experiment [2], 25800. In addition, the “Expression Normalization to mAb 65C12” value (with human ASGR-1 (wild type) [3]; in experiment [4]) was 1 throughout. Besides, the “Normalization to wt ASGR1 Binding” value in experiment [5] turned out to be 1.

B2: 54E9 (antibody, V domains shown)
VH: QVQLVQSGAEVKKPGASVKVSCKASGYTFNSYGISWVRLAPGQGLEWMGWISAYNGNTKNAQKLQGRVTMTTDTSTSTAYMELRSLRSDDTAVYYCARHDFWSGYYKGMDVWGQGTTVTVSS
VL: not shown
notes: mAb
As for B2, the entries for the “FACS Binding Geomean” value (with human ASGR-1 (wild type) [1]; in experiment [2]) were 38600 and 15300, respectively. In addition, the results for the “Expression Normalization to mAb 65C12” value (with human ASGR-1 (wild type) [3]; in experiment [4]) were 1.45 and 1.68, respectively. Also, the “Normalization to wt ASGR1 Binding” value in experiment [5] worked out at 1.16. In the experiment with human ASGR-1 (wild type) [6], this molecule displayed an EC50 of 5 nM.

B3: 12D2 (antibody, V domains shown)
VH: EVQLVESGGGLVKPGGSLRLSCAASGFTFSSYSMNWVRQAPGKGLEWVSSISSSSSYIYYADSVKGRFTISRDNAKNSLYLQMNSLRAEDTAVYYCARLGDYWGQGTLVAVSS
VL: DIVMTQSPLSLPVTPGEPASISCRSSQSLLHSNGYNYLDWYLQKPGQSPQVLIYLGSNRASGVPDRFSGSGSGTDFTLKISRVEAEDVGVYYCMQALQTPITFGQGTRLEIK
notes: mAb
The molecule B3 came in with an EC50 with human ASGR-1 (wild type) [6] of 3.2 nM.

B4: 202A3 (antibody, V domains shown)
VH: QVQLEQSGAEVKKPGASVKVSCKASGYTFTSYDINWVRQATGQGLEWLGWMNPKRGNTGYAQKFQGRVTMTRNTSISTAHMELSSLRSEDTAVYYCARGRYSREDYYYYYDMDVWGQGTTVTVSS
VL: DIQMSQSPSSLSASVGDRVTITCRASQGIRNDLGWYQQKPGKAPKRLICAASRLQSGVPSRFSGSGSGTEFTLTISSLQPEDFAIYYCLQHHDYPFTFGPGTKVDIK
notes: mAb
Take B4: the “FACS Binding Geomean” value with human ASGR-1 (wild type) [1] turned out to be 24800; in experiment [2], 12500. The results for the “Expression Normalization to mAb 65C12” value (in the experiment with human ASGR-1 (wild type) [3]; in experiment [4]) were 2.26 and 2.06, respectively. Further, the “Normalization to wt ASGR1 Binding” value in experiment [5] worked out at 0.913. This molecule also displayed an EC50 with human ASGR-1 (wild type) [6] of 0.8 nM.

B5: 199A7 (antibody, V domains shown)
VH: QVQLVESGGGVVQPGRSLRLSCAASGFTFSNYGMHWVRQAPGKGLEWVAIIWFDGSNKYYADSVKGRFTISRDNSKNTLFLQMSSLRAEDTAVYYCAREWLQFRYYYGMDVWGQGTTVTVSS
VL: B4 VL with S5T, N31K, C49Y, R53S, I85T, Y87V, H92Y, D93R, I106F
notes: mAb
Regarding B5, the “FACS Binding Geomean” value with human ASGR-1 (wild type) [1] is 17000; in experiment [2] it was 9460. Besides, the “Expression Normalization to mAb 65C12” value in the experiment with human ASGR-1 (wild type) [3] amounted to 3.3; in experiment [4], 2.72. Further, the “Normalization to wt ASGR1 Binding” value in experiment [5] turned out to be 0.826.

B6: 7F4 (antibody, V domains shown)
VH: QLQLQESGPGLVKPSETLSLTCTVSGGSISRSSYYWGWIRQPPGKGLEWIGNIYYSGATYYNPSLKSRVTISVDTSTNQFSLKLSSVTAADTAVYYCARHSGSWSLDYWGQGTLVTVSS
VL: B4 VL with S5T, A25T, C49Y, R53N, I85T, H92S, D93A, F96L, P100G, D105E
notes: mAb
B6: binding in experiment [7] was put at a Kd of 1.2 nM. For the same molecule, in the experiment with human ASGR-1 (wild type) [6], the EC50 stood at 5.4 nM.

B7: 146B6 (antibody, V domains shown)
VH: EVQLVESGGGLVQPGGSLRLSCAASGFTFSSYNMNWVRQAPGKGLEWVSYISRSSNTKHYADSVKGRFTISRDNAKNSLYLQMDSLRDEDTAVYYCARDRSGSYGYFYYYGLDVWGQGTTVTVSS
VL: not shown
notes: mAb
With B7, the figures for the “FACS Binding Geomean” value (with human ASGR-1 (wild type) [1]; in experiment [2]) were 24100 and 14400, respectively. In addition, the results for the “Expression Normalization to mAb 65C12” value (with human ASGR-1 (wild type) [3]; in experiment [4]) were 2.32 and 1.79, respectively. For the same molecule, in experiment [5], the “Normalization to wt ASGR1 Binding” value is 0.769.

B8: 4B1 (antibody, V domains shown)
VH: QVQLQESGPGLVKPSETLSLTCSVSGDSISSYSWSWIRQPAGKGLEWIGRIYTSGSTNYIPSLKSRITMSVDTSKKQFSLKLSSVTAADTAVYYCARDLKSSGCLFFDYWGQGTLVTVSS
VL: DIQMTQSPSSLSASVGDRVTITCRASHTIRTYLNWYQQKPGKAPKLLIYAASSLQSGVPSRINGSGSGTDFTLTITNLQPEDFATYYCQQSYNISFTFGPGTKVDIK
notes: mAb
Regarding B8, in the experiment with human ASGR-1 (wild type) [6], a half-maximal effect (EC50) was put at 4.1 nM. That is a single-digit nanomolar value.

B9: 198D2 (antibody, V domains shown)
VH: QVQLVESGGGVVQPGRSLRLSCAASGFTFRSYGMHWVRQAPGKGLEWVAVIIYDGSYKYYADSVKGRFTISRDNSKNTLYLQMNSLRAEDTAVYYCARTYSGGMDVWGQGTTVTVSS
VL: QSVLTQPPSVSAAPGQKVTISCSGSSSNIGSNYVSWYQQLPGTAPKVLIYDNNKRPSGIPDRFSGSKSGTSATLGITGLQTGDEADYYCGTWDSRLNVGVFGGGTKLTVL
notes: mAb
For B9, the “FACS Binding Geomean” value with human ASGR-1 (wild type) [1] was 16900; in experiment [2], 7140. For the same molecule, the “Expression Normalization to mAb 65C12” value with human ASGR-1 (wild type) [3] was determined as 3.32; in experiment [4] it was 3.61. Besides, in experiment [5], the “Normalization to wt ASGR1 Binding” value was 1.09. A half-maximal effect in the experiment with human ASGR-1 (wild type) [6] (EC50) was put at 0.14 nM.

B10: 4H6 (antibody, V domains shown)
VH: QVQLVQSGAEVKKPGASVKVSCKASGYTFTDYYLHWVRQAPGQGLEWMGWIHPNSGGTNYAQKFQGRVTMTRDTSISTAYMGLSSLRSDDTAVYYCARDGTSSFDYWGQGTLVTVSS
VL: DIQMTQSPSSVSASVGDRVTITCRASQGISRWLAWYQQKPGKAPKLLIYGASSLQSGVPSRFSGSGSGTDFTLTISSLQPEDFAIYYCQQANSFPFTFGPGTKVDIK
notes: mAb
B10 gave a Kd in experiment [7] of 4.8 nM. For the same molecule, the EC50 in the experiment with human ASGR-1 (wild type) [6] was determined as 1.7 nM.
